Laboratory results: doi:10.1101/839027v1

Substrate: O=[N+]([O-])c1ccc(O[C@@H]2O[C@H](CO)[C@@H](O)[C@H](O)[C@H]2O)cc1
Test: purified protein

| Protein | Km [mM] | kcat [s⁻¹] |
| --- | --- | --- |
| β-glucosidase B (BglB) (Paenibacillus polymyxa) (protein) MSENTFIFPATFMWGTSTSSYQIEGGTDEGGRTPSIWDTFCQIPGKVIGGDCGDVACDHFHHFKEDVQLMKQLGFLHYRFSVAWPRIMPAAGIINEEGLLFYEHLLDEIELAGLIPMLTLYHWDLPQWIEDEGGWTQRETIQHFKTYASVIMDRFGERINWWNTINEPYCASILGYGTGEHAPGHENWREAFTAAHHILMCHGIASNLHKEKGLTGKIGITLNMEHVDAASERPEDVAAAIRRDGFINRWFAEPLFNGKYPEDMVEWYGTYLNGLDFVQPGDMELIQQPGDFLGINYYTRSIIRSTNDASLLQVEQVHMEEPVTDMGWEIHPESFYKLLTRIEKDFSKGLPILITENGAAMRDELVNGQIEDTGRHGYIEEHLKACHRFIEEGGQLKGYFVWSFLDNFEWAWGYSKRFGIVHINYETQERTPKQSALWFKQMMAKNGF | 6.5 ± 0.2 | 17.83 ± 0.167 |
| β-glucosidase B (BglB) (Paenibacillus polymyxa; T431I) (protein) MSENTFIFPATFMWGTSTSSYQIEGGTDEGGRTPSIWDTFCQIPGKVIGGDCGDVACDHFHHFKEDVQLMKQLGFLHYRFSVAWPRIMPAAGIINEEGLLFYEHLLDEIELAGLIPMLTLYHWDLPQWIEDEGGWTQRETIQHFKTYASVIMDRFGERINWWNTINEPYCASILGYGTGEHAPGHENWREAFTAAHHILMCHGIASNLHKEKGLTGKIGITLNMEHVDAASERPEDVAAAIRRDGFINRWFAEPLFNGKYPEDMVEWYGTYLNGLDFVQPGDMELIQQPGDFLGINYYTRSIIRSTNDASLLQVEQVHMEEPVTDMGWEIHPESFYKLLTRIEKDFSKGLPILITENGAAMRDELVNGQIEDTGRHGYIEEHLKACHRFIEEGGQLKGYFVWSFLDNFEWAWGYSKRFGIVHINYETQERIPKQSALWFKQMMAKNGF | 5.1 ± 0.1 | 15.3 ± 0.717 |
| β-glucosidase B (BglB) (Paenibacillus polymyxa; M319C) (protein) MSENTFIFPATFMWGTSTSSYQIEGGTDEGGRTPSIWDTFCQIPGKVIGGDCGDVACDHFHHFKEDVQLMKQLGFLHYRFSVAWPRIMPAAGIINEEGLLFYEHLLDEIELAGLIPMLTLYHWDLPQWIEDEGGWTQRETIQHFKTYASVIMDRFGERINWWNTINEPYCASILGYGTGEHAPGHENWREAFTAAHHILMCHGIASNLHKEKGLTGKIGITLNMEHVDAASERPEDVAAAIRRDGFINRWFAEPLFNGKYPEDMVEWYGTYLNGLDFVQPGDMELIQQPGDFLGINYYTRSIIRSTNDASLLQVEQVHCEEPVTDMGWEIHPESFYKLLTRIEKDFSKGLPILITENGAAMRDELVNGQIEDTGRHGYIEEHLKACHRFIEEGGQLKGYFVWSFLDNFEWAWGYSKRFGIVHINYETQERTPKQSALWFKQMMAKNGF | 6.0 ± 0.5 | 15 ± 0.517 |
| β-glucosidase B (BglB) (Paenibacillus polymyxa; K337D) (protein) MSENTFIFPATFMWGTSTSSYQIEGGTDEGGRTPSIWDTFCQIPGKVIGGDCGDVACDHFHHFKEDVQLMKQLGFLHYRFSVAWPRIMPAAGIINEEGLLFYEHLLDEIELAGLIPMLTLYHWDLPQWIEDEGGWTQRETIQHFKTYASVIMDRFGERINWWNTINEPYCASILGYGTGEHAPGHENWREAFTAAHHILMCHGIASNLHKEKGLTGKIGITLNMEHVDAASERPEDVAAAIRRDGFINRWFAEPLFNGKYPEDMVEWYGTYLNGLDFVQPGDMELIQQPGDFLGINYYTRSIIRSTNDASLLQVEQVHMEEPVTDMGWEIHPESFYDLLTRIEKDFSKGLPILITENGAAMRDELVNGQIEDTGRHGYIEEHLKACHRFIEEGGQLKGYFVWSFLDNFEWAWGYSKRFGIVHINYETQERTPKQSALWFKQMMAKNGF | 4.3 ± 0.1 | 13.2 ± 0.667 |
